Results published in patent US8969060B2, “Modified glucose dehydrogenase” (Ikeda Food Research Co., Ltd., priority 2011, dated 2015).

Tests used:
[1] = Relative enzymatic activity of GLD (DCIP/1-m-PMS, plate reader, yeast culture supernatant) with 1,10-phenanthroline present; format: biochemical; settings: site-specific mutants, inhibitor final concentration 1 mM
Method in brief: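 Yeast transformants grown in YPD, 30° C., 24 h; diluted culture supernatant assayed in phosphate buffer pH 7.0 with D-glucose, DCIP and 1-m-PMS, DCIP absorbance change at 600 nm. Relative activity (%) = activity with 1 mM 1,10-phenanthroline (final, replacing methanol) divided by activity without it.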

[2] = Relative enzymatic activity of GLD (DCIP/1-m-PMS, plate reader, yeast culture supernatant) with proflavin hydrochloride present; format: biochemical; settings: site-specific mutants, inhibitor final concentration 1 mM
Method in brief: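 Culture supernatant diluted and mixed with reagent of phosphate buffer pH 7.0, 1.0 M D-glucose, 3 mM DCIP, 3 mM 1-m-PMS and methanol (0.1:1:0.14:0.2:0.06). DCIP absorbance decrease at 600 nm followed; proflavin hydrochloride in methanol replaced methanol at 1 mM final. Activity expressed as % of inhibitor-free blank.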

Molecule | Relative Activity [%] 1,10-Phenanthroline [1] [%] | Relative Activity [%] Proflavin hydrochloride [2] [%]
G426H: modified GLD: SEQ ID NO: 1 with substitution G426H (protein, listed as Aspergillus terreus, SIGNAL (1)..(19)) MLGKLSFLSALSLAVAAPLSNSTSAKYDYIVIGGGTSGLAVANRLSEDPNVNVLILEAGGSVWNNPNVTNVDGYGLAFGSDIDWQYQSVNQPYGGNLSQVLRAGKALGGTSTINGMAYTRAEDVQIDAWETIGNTGWTWKNLFPYYRKSENFTVPTKSQTSLGASYEAGAHGHEGPLDVAFTQIESNNLTTYLNRTFQGMGLPWTEDVNGGKMRGFNLYPSTVNLEEYVREDAARAYYWPYKSRPNLHVLLNTFANRIVWDGEAHDGHITASGVEITSRNGTVRVINAEKEVIVSAGALKSPAILELSGIGNPSVLDKHNIPVKVNLPTVGENLQDQVNSHMDASGNTSISGTKAVSYPDVYDVFGDEAESVAKQIRANLKQYAADTAKANGNIMKAADLERLFEVQYDLIFKGRVPIAEVLNYPHSATSVFAEFWALLPFARGSVHIGSSNPAEFPVINPNYFMLDWDAKSYVAVAKYIRRSFESYPLSSIVKESTPGYDVIPRNASEQSWKEWVFDKNYRSNFHPVGTAAMMPREIGGVVDERLNVYGTTNVRVVDASVLPFQVCGHLVSTLYAVAERAADLIKADAGRR | 54.9 | 48.7
G426L: modified GLD: SEQ ID NO: 1 with substitution G426L (protein, listed as Aspergillus terreus, SIGNAL (1)..(19)) MLGKLSFLSALSLAVAAPLSNSTSAKYDYIVIGGGTSGLAVANRLSEDPNVNVLILEAGGSVWNNPNVTNVDGYGLAFGSDIDWQYQSVNQPYGGNLSQVLRAGKALGGTSTINGMAYTRAEDVQIDAWETIGNTGWTWKNLFPYYRKSENFTVPTKSQTSLGASYEAGAHGHEGPLDVAFTQIESNNLTTYLNRTFQGMGLPWTEDVNGGKMRGFNLYPSTVNLEEYVREDAARAYYWPYKSRPNLHVLLNTFANRIVWDGEAHDGHITASGVEITSRNGTVRVINAEKEVIVSAGALKSPAILELSGIGNPSVLDKHNIPVKVNLPTVGENLQDQVNSHMDASGNTSISGTKAVSYPDVYDVFGDEAESVAKQIRANLKQYAADTAKANGNIMKAADLERLFEVQYDLIFKGRVPIAEVLNYPLSATSVFAEFWALLPFARGSVHIGSSNPAEFPVINPNYFMLDWDAKSYVAVAKYIRRSFESYPLSSIVKESTPGYDVIPRNASEQSWKEWVFDKNYRSNFHPVGTAAMMPREIGGVVDERLNVYGTTNVRVVDASVLPFQVCGHLVSTLYAVAERAADLIKADAGRR | 91.2 | 63.7
G426I: modified GLD: SEQ ID NO: 1 with substitution G426I (protein, listed as Aspergillus terreus, SIGNAL (1)..(19)) MLGKLSFLSALSLAVAAPLSNSTSAKYDYIVIGGGTSGLAVANRLSEDPNVNVLILEAGGSVWNNPNVTNVDGYGLAFGSDIDWQYQSVNQPYGGNLSQVLRAGKALGGTSTINGMAYTRAEDVQIDAWETIGNTGWTWKNLFPYYRKSENFTVPTKSQTSLGASYEAGAHGHEGPLDVAFTQIESNNLTTYLNRTFQGMGLPWTEDVNGGKMRGFNLYPSTVNLEEYVREDAARAYYWPYKSRPNLHVLLNTFANRIVWDGEAHDGHITASGVEITSRNGTVRVINAEKEVIVSAGALKSPAILELSGIGNPSVLDKHNIPVKVNLPTVGENLQDQVNSHMDASGNTSISGTKAVSYPDVYDVFGDEAESVAKQIRANLKQYAADTAKANGNIMKAADLERLFEVQYDLIFKGRVPIAEVLNYPISATSVFAEFWALLPFARGSVHIGSSNPAEFPVINPNYFMLDWDAKSYVAVAKYIRRSFESYPLSSIVKESTPGYDVIPRNASEQSWKEWVFDKNYRSNFHPVGTAAMMPREIGGVVDERLNVYGTTNVRVVDASVLPFQVCGHLVSTLYAVAERAADLIKADAGRR | 93.2 | 63.4
G426P: modified GLD: SEQ ID NO: 1 with substitution G426P (protein, listed as Aspergillus terreus, SIGNAL (1)..(19)) MLGKLSFLSALSLAVAAPLSNSTSAKYDYIVIGGGTSGLAVANRLSEDPNVNVLILEAGGSVWNNPNVTNVDGYGLAFGSDIDWQYQSVNQPYGGNLSQVLRAGKALGGTSTINGMAYTRAEDVQIDAWETIGNTGWTWKNLFPYYRKSENFTVPTKSQTSLGASYEAGAHGHEGPLDVAFTQIESNNLTTYLNRTFQGMGLPWTEDVNGGKMRGFNLYPSTVNLEEYVREDAARAYYWPYKSRPNLHVLLNTFANRIVWDGEAHDGHITASGVEITSRNGTVRVINAEKEVIVSAGALKSPAILELSGIGNPSVLDKHNIPVKVNLPTVGENLQDQVNSHMDASGNTSISGTKAVSYPDVYDVFGDEAESVAKQIRANLKQYAADTAKANGNIMKAADLERLFEVQYDLIFKGRVPIAEVLNYPPSATSVFAEFWALLPFARGSVHIGSSNPAEFPVINPNYFMLDWDAKSYVAVAKYIRRSFESYPLSSIVKESTPGYDVIPRNASEQSWKEWVFDKNYRSNFHPVGTAAMMPREIGGVVDERLNVYGTTNVRVVDASVLPFQVCGHLVSTLYAVAERAADLIKADAGRR | 56.1 | 33.3
G426M: modified GLD: SEQ ID NO: 1 with substitution G426M (protein, listed as Aspergillus terreus, SIGNAL (1)..(19)) MLGKLSFLSALSLAVAAPLSNSTSAKYDYIVIGGGTSGLAVANRLSEDPNVNVLILEAGGSVWNNPNVTNVDGYGLAFGSDIDWQYQSVNQPYGGNLSQVLRAGKALGGTSTINGMAYTRAEDVQIDAWETIGNTGWTWKNLFPYYRKSENFTVPTKSQTSLGASYEAGAHGHEGPLDVAFTQIESNNLTTYLNRTFQGMGLPWTEDVNGGKMRGFNLYPSTVNLEEYVREDAARAYYWPYKSRPNLHVLLNTFANRIVWDGEAHDGHITASGVEITSRNGTVRVINAEKEVIVSAGALKSPAILELSGIGNPSVLDKHNIPVKVNLPTVGENLQDQVNSHMDASGNTSISGTKAVSYPDVYDVFGDEAESVAKQIRANLKQYAADTAKANGNIMKAADLERLFEVQYDLIFKGRVPIAEVLNYPMSATSVFAEFWALLPFARGSVHIGSSNPAEFPVINPNYFMLDWDAKSYVAVAKYIRRSFESYPLSSIVKESTPGYDVIPRNASEQSWKEWVFDKNYRSNFHPVGTAAMMPREIGGVVDERLNVYGTTNVRVVDASVLPFQVCGHLVSTLYAVAERAADLIKADAGRR | 78.3 | 58.8
G426R: modified GLD: SEQ ID NO: 1 with substitution G426R (protein, listed as Aspergillus terreus, SIGNAL (1)..(19)) MLGKLSFLSALSLAVAAPLSNSTSAKYDYIVIGGGTSGLAVANRLSEDPNVNVLILEAGGSVWNNPNVTNVDGYGLAFGSDIDWQYQSVNQPYGGNLSQVLRAGKALGGTSTINGMAYTRAEDVQIDAWETIGNTGWTWKNLFPYYRKSENFTVPTKSQTSLGASYEAGAHGHEGPLDVAFTQIESNNLTTYLNRTFQGMGLPWTEDVNGGKMRGFNLYPSTVNLEEYVREDAARAYYWPYKSRPNLHVLLNTFANRIVWDGEAHDGHITASGVEITSRNGTVRVINAEKEVIVSAGALKSPAILELSGIGNPSVLDKHNIPVKVNLPTVGENLQDQVNSHMDASGNTSISGTKAVSYPDVYDVFGDEAESVAKQIRANLKQYAADTAKANGNIMKAADLERLFEVQYDLIFKGRVPIAEVLNYPRSATSVFAEFWALLPFARGSVHIGSSNPAEFPVINPNYFMLDWDAKSYVAVAKYIRRSFESYPLSSIVKESTPGYDVIPRNASEQSWKEWVFDKNYRSNFHPVGTAAMMPREIGGVVDERLNVYGTTNVRVVDASVLPFQVCGHLVSTLYAVAERAADLIKADAGRR | 71.5 | 43.0
G426N: modified GLD: SEQ ID NO: 1 with substitution G426N (protein, listed as Aspergillus terreus, SIGNAL (1)..(19)) MLGKLSFLSALSLAVAAPLSNSTSAKYDYIVIGGGTSGLAVANRLSEDPNVNVLILEAGGSVWNNPNVTNVDGYGLAFGSDIDWQYQSVNQPYGGNLSQVLRAGKALGGTSTINGMAYTRAEDVQIDAWETIGNTGWTWKNLFPYYRKSENFTVPTKSQTSLGASYEAGAHGHEGPLDVAFTQIESNNLTTYLNRTFQGMGLPWTEDVNGGKMRGFNLYPSTVNLEEYVREDAARAYYWPYKSRPNLHVLLNTFANRIVWDGEAHDGHITASGVEITSRNGTVRVINAEKEVIVSAGALKSPAILELSGIGNPSVLDKHNIPVKVNLPTVGENLQDQVNSHMDASGNTSISGTKAVSYPDVYDVFGDEAESVAKQIRANLKQYAADTAKANGNIMKAADLERLFEVQYDLIFKGRVPIAEVLNYPNSATSVFAEFWALLPFARGSVHIGSSNPAEFPVINPNYFMLDWDAKSYVAVAKYIRRSFESYPLSSIVKESTPGYDVIPRNASEQSWKEWVFDKNYRSNFHPVGTAAMMPREIGGVVDERLNVYGTTNVRVVDASVLPFQVCGHLVSTLYAVAERAADLIKADAGRR | 69.6 | 51.9
G426K: modified GLD: SEQ ID NO: 1 with substitution G426K (protein, listed as Aspergillus terreus, SIGNAL (1)..(19)) MLGKLSFLSALSLAVAAPLSNSTSAKYDYIVIGGGTSGLAVANRLSEDPNVNVLILEAGGSVWNNPNVTNVDGYGLAFGSDIDWQYQSVNQPYGGNLSQVLRAGKALGGTSTINGMAYTRAEDVQIDAWETIGNTGWTWKNLFPYYRKSENFTVPTKSQTSLGASYEAGAHGHEGPLDVAFTQIESNNLTTYLNRTFQGMGLPWTEDVNGGKMRGFNLYPSTVNLEEYVREDAARAYYWPYKSRPNLHVLLNTFANRIVWDGEAHDGHITASGVEITSRNGTVRVINAEKEVIVSAGALKSPAILELSGIGNPSVLDKHNIPVKVNLPTVGENLQDQVNSHMDASGNTSISGTKAVSYPDVYDVFGDEAESVAKQIRANLKQYAADTAKANGNIMKAADLERLFEVQYDLIFKGRVPIAEVLNYPKSATSVFAEFWALLPFARGSVHIGSSNPAEFPVINPNYFMLDWDAKSYVAVAKYIRRSFESYPLSSIVKESTPGYDVIPRNASEQSWKEWVFDKNYRSNFHPVGTAAMMPREIGGVVDERLNVYGTTNVRVVDASVLPFQVCGHLVSTLYAVAERAADLIKADAGRR | 94.3 | 65.4
